Assay [1] deals with Recombinant human IL-21R, extracellular domain fused to 8x Histidine tag (generated in house) (human, UniProt Q9HBE5 20-232). The experiment in a line: SPR, 25 C.
The target in assay [2] is T1, Human IL-21R (Biolegend, Catalog No. 773104) (human, UniProt Q9HBE5 20-232, limits assumed).
T1 construct: Bought; also called human IL-21 receptor
As to the kind of experiment: SPR, 37 C.

The target of assay [3] is T1, Human IL-21R (Biolegend, Catalog No. …). As to the kind of experiment: SPR, 37 C. This is another data set of the same source.
A further assay concerns the target T2, mouse CD8 (mouse, UniProt P01731 28-247; P10300 22-213).
T2 construct: copies: 1 + 1
The experiment in a line: not described.

In another assay the target is T3, mouse CD8b (mouse, UniProt P10300 22-175, limits assumed).
T3 sequence (looked up): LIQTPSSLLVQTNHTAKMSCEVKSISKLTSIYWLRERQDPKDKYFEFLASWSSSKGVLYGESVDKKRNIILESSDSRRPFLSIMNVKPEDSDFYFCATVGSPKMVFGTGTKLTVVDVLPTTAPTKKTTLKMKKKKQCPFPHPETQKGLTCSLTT
The experiment in a line: not described.
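Throughout, for koff: fc fusion proteins captured on an anti-human IgG Fc Biacore surface, 10 min dissociation, double-referenced data fitted to a 1:1 Langmuir model with mass transport, triplicate runs.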
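Throughout, for kon: fc fusion proteins captured on an anti-human IgG Fc Biacore surface, 10 min dissociation, double-referenced data fitted to a 1:1 Langmuir model with mass transport, triplicate runs.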

T1 sequence (Q9HBE5 20-232 limits assumed): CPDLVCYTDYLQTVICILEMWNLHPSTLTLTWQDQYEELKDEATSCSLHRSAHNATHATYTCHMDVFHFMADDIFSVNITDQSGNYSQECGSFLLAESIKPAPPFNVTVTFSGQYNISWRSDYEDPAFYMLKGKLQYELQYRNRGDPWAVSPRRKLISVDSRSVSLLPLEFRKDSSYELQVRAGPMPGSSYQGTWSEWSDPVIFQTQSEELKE
Sequence of Recombinant human IL-21R, extracellular domain fused to 8x Histidine tag (generated in house) (Q9HBE5 other isoform, or with tags, fused parts or gaps limits assumed): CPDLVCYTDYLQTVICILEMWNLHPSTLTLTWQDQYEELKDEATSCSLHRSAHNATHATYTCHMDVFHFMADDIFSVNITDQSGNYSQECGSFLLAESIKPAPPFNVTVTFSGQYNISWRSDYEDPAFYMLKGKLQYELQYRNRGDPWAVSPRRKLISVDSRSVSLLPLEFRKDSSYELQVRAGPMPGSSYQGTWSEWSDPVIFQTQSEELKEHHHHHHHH
T2 sequence (P01731 28-247 limits assumed, one chain of several): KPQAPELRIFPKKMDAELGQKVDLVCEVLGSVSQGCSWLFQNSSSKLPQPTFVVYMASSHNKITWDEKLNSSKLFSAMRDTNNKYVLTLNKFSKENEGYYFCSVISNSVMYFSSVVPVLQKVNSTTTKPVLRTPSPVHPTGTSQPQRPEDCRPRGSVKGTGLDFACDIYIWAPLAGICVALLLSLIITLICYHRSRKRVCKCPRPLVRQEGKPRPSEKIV

B1: hIL21 v31.23, non-fusion, 8His-tagged (ligand)
chain: QGQDRHMIRMRQLIDIVDQLKNYVNDLVPEFLPAPEDVETNCEWSAFSCFQKAQLKSANTGNNERIINVSIKKLKQKPPGGEGGGGGGGEGGCPSCDSYEKKPPKEFLERFKSLLQKMIHQHLSSRTHGSEDSGGASHHHHHHHH
On to B1, for which the Kd in assay [1] turned out to be 6060 nM.

B2: hIL21 v31.51, non-fusion, 8His-tagged (ligand)
chain: QGQDRHMIGMRQLIDIVDQLKNYVNDLVPEFLPAPEDVETNCEWSAFSCFQKAQLKSANTGNNERIINVSIKKLKRKPPGGEGGGGGGGEGGCPSCDSYEKKPPKEFLERFKSLLQKMIHQHLSSRTHGSEDSGGASHHHHHHHH
On to B2, for which the Kd in assay [1] came out at 7730 nM.

B3: xhCD8.1-hIL21 v27 (other)
VH: QVQLVQSGAEVKKPGSSVKVSCKASGGTFSSYAISWVRQAPGQGLEWMGGIIPGYATANYAQKFQGRVTITADESTSTAYMELSSLRSEDTAVYYCARDAAGIRLFADWGQGTLVTVSS
VL: DIQMTQSPSSLSASVGDRVTITCRASQSIYGALNWYQQKPGKAPKLLIYGASNLQSGVPSRFSGSGSGTDFTLTISSLQPEDFATYYCQSTYTAPWTFGGGTKVEIK
chain: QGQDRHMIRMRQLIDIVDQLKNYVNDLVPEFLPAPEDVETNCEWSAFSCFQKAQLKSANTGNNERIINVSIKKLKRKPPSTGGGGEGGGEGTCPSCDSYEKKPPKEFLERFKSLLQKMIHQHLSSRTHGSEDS
notes: Human IgG1/kappa, knob-into-hole, L234A/L235A/G237A
Turning to B3, the “fold difference of IL-21R affinity against wild type IL-21” value (“fold difference of IL-21R affinity” below) in assay [2] was at most 2 fold. Also, in assay [3], the Kd was found to be 0.106 nM, the koff was 0.00139 s⁻¹ and the kon stood at 1.31e+07 M⁻¹ s⁻¹.

B4: xhCD8.1 (antibody, V domains shown)
VH: QVQLVQSGAEVKKPGSSVKVSCKASGGTFSSYAISWVRQAPGQGLEWMGGIIPGYATANYAQKFQGRVTITADESTSTAYMELSSLRSEDTAVYYCARDAAGIRLFADWGQGTLVTVSS
VL: DIQMTQSPSSLSASVGDRVTITCRASQSIYGALNWYQQKPGKAPKLLIYGASNLQSGVPSRFSGSGSGTDFTLTISSLQPEDFATYYCQSTYTAPWTFGGGTKVEIK
notes: Anti-human CD8 antibody; human IgG1/kappa; also called xhCD8v12; xCtrl (in mouse studies)
For B4, the binding result with mouse CD8 and with mouse CD8b was “no binding” throughout.

B5: xhCD8.1-hIL21 v31 (other)
VH: QVQLVQSGAEVKKPGSSVKVSCKASGGTFSSYAISWVRQAPGQGLEWMGGIIPGYATANYAQKFQGRVTITADESTSTAYMELSSLRSEDTAVYYCARDAAGIRLFADWGQGTLVTVSS
VL: DIQMTQSPSSLSASVGDRVTITCRASQSIYGALNWYQQKPGKAPKLLIYGASNLQSGVPSRFSGSGSGTDFTLTISSLQPEDFATYYCQSTYTAPWTFGGGTKVEIK
chain: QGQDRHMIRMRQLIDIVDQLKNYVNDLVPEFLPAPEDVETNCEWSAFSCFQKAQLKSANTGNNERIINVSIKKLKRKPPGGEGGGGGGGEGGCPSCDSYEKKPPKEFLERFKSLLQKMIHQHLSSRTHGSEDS
notes: as for B3
Consider B5, for which the “fold difference of IL-21R affinity” value in assay [2] was at most 2 fold. For the same molecule, in assay [3], the Kd is 0.094 nM, the off-rate constant (koff) is 0.00113 s⁻¹ and the kon came to 1.2e+07 M⁻¹ s⁻¹.

B6: xhCD8.1-hIL21 v30 (other)
VH: QVQLVQSGAEVKKPGSSVKVSCKASGGTFSSYAISWVRQAPGQGLEWMGGIIPGYATANYAQKFQGRVTITADESTSTAYMELSSLRSEDTAVYYCARDAAGIRLFADWGQGTLVTVSS
VL: DIQMTQSPSSLSASVGDRVTITCRASQSIYGALNWYQQKPGKAPKLLIYGASNLQSGVPSRFSGSGSGTDFTLTISSLQPEDFATYYCQSTYTAPWTFGGGTKVEIK
chain: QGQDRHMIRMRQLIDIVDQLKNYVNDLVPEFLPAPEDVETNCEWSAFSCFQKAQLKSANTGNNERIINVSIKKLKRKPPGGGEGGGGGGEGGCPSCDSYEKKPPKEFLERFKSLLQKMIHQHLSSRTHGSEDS
notes: as for B3
With B6, in assay [2], the “fold difference of IL-21R affinity” value is at most 2 fold. In assay [3], this molecule gave a Kd of 0.093 nM, a koff of 0.00107 s⁻¹ and an association rate constant (kon) of 1.16e+07 M⁻¹ s⁻¹.

B7: xhCD8.1-hIL21 v28 (other)
VH: QVQLVQSGAEVKKPGSSVKVSCKASGGTFSSYAISWVRQAPGQGLEWMGGIIPGYATANYAQKFQGRVTITADESTSTAYMELSSLRSEDTAVYYCARDAAGIRLFADWGQGTLVTVSS
VL: DIQMTQSPSSLSASVGDRVTITCRASQSIYGALNWYQQKPGKAPKLLIYGASNLQSGVPSRFSGSGSGTDFTLTISSLQPEDFATYYCQSTYTAPWTFGGGTKVEIK
chain: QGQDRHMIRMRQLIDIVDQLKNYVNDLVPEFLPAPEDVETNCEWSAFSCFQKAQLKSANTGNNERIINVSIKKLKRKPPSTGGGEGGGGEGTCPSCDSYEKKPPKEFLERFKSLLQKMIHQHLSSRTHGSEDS
notes: as for B3
As for B7, the “fold difference of IL-21R affinity” value in assay [2] is at most 2 fold. In assay [3], this molecule returned a Kd of 0.106 nM, a koff of 0.00139 s⁻¹ and a kon of 1.31e+07 M⁻¹ s⁻¹.

B8: xhCD8v11 (antibody, V domains shown)
VH: EVQLVESGGGLVQPGGSLRLSCAASGFTFSSYAMSWVRQAPGKGLEWVSDITYAGGSTAYADSVKGRFTISRDNAKNSLYLQMNSLRAEDTAVYYCARSNAYAWDDALDIWGQGTLVTVSS
VL: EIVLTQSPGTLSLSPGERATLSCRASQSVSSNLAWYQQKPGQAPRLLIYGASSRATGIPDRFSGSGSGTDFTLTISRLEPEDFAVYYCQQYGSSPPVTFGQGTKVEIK
notes: Anti-human CD8 antibody; human IgG1/kappa
As for B8, the binding result with mouse CD8 is on record as “no binding”.

The values above are taken from patent US12247072 (ASHER BIOTHERAPEUTICS, dated 2025).
